Laboratory results reported in patent US5385885A, “Inhibition of smooth muscle cell proliferation by antistasin and tick anticoagulant peptide” (priority 1991, dated 1995).

Key:
[1] = system: rat aortic smooth muscle cells; assay: Mitogenic activity of blood coagulation factors on smooth muscle cells (3H-thymidine incorporation); format: cell-based, Wistar rats; details: 24 h
Experimental: Primary smooth muscle cell cultures were prepared from the thoracic and abdominal aorta of 2-3 month old Wistar rats essentially using the procedure of Reilly, C. […] After removing as much fat and adherent adventitia as possible with scissors and forceps, the tissue was finely minced, enzymatically dissociated with successive 37° C. incubations in HBSS containing collagenase (Sigma, 0.5 mg/ml for 15 min.), then elastase (Sigma, 0.125 mg/ml for 30 min.) and again collagenase (60 min.). […] Cells were grown in Dulbecco's Minimal Essential Medium (DMEM) containing 10% fetal bovine serum (FBS) with antibiotics. […] Using a monoclonal antibody to alpha actin (Sigma Chemical Company, St. Louis, Mo.), about 60-80% (preparation dependent) of these confluent cells stained positive for this smooth muscle cell marker. After 10 days in culture, the cells were dissociated with trypsinethylene diamine tetraacetate (EDTA), split 1:10 and subcultured in the above medium. At confluence the cells were transferred to DMEM containing 0.1 % FBS for a 24 hour period before using them for assay. All smooth muscle cells used in these studies were from passages 1-4.
The prepared rat smooth muscle cells were seeded in Falcon 24 multiwell plates (10^5 cells/well) and cultured at 37° C., in a 5% CO2 atmosphere in 1 ml DMEM containing 10% FBS. […] At the end of the incubation, the cultures were washed twice with DMEM and pulsed for two hours in ^3 H-thymidine (1 μCi/ml) in DMEM containing 0.1% BSA. The cells were washed twice with cold phosphate buffered saline (PBS), treated twice with 5% trichloroacetic acid (TCA) for 5 min., dissolved with 0.25N NaOH (0.4 ml) incubated at 37° C. for 60 min., mixed with 5 ml Ecolume (ICN Biomedicals, Costa Mesa, Calif.), and their radioactivity determined in a scintillation counter. All assays were in triplicate. Error bars represent the standard error of the mean (S.E.M. with n=6 or more experiments). Smooth muscle cell mitogenic activity produced by exogenous agents is expressed as % relative mitogenic activity which is defined as: [formula] […]

[2] = system: rat aortic smooth muscle cells; assay: Comparison of 3H-thymidine incorporation and cell proliferation in rat aortic smooth muscle cell cultures; format: cell-based; details: 10 mM factor, 36 hours treatment
Experimental: Rat smooth muscle cells were incubated with different blood coagulation factors to determine ^3 H-thymidine incorporation and effect cell number. […] At the end of the incubation, half of the groups were pulsed with ^3 H-thymidine for two hours while their identically treated counterparts were dissociated with trypsin and the cells (smooth muscle cells on the basis of a reddish-brown staining pattern with Masson's trichome) were counted. Although there was not a direct correspondence between the per cent increase in thymidine incorporation and cell number, the increase in DNA synthesis correlated well with an increase in cell number. bovine factor Xa increased cell proliferation in a dose dependent manner. 10 mM Protein S induced greater cell proliferation than 50 mM bovine factor Xa.

[3] = system: smooth muscle cells; assay: Effect of antistasin and tick anticoagulant peptide on factor Xa induced mitogenesis of smooth muscle cells; format: cell-based, rat; details: FIG. 2
Experimental: Primary smooth muscle cell cultures were prepared from the thoracic and abdominal aorta of 2-3 month old Wistar rats essentially using the procedure of Reilly, C. F. (1990) J. Cell Physiol. 142,342 (1990). After removing as much fat and adherent adventitia as possible with scissors and forceps, the tissue was finely minced, enzymatically dissociated with successive 37° C. incubations in HBSS containing collagenase (Sigma, 0.5 mg/ml for 15 min.), then elastase (Sigma, 0.125 mg/ml for 30 min.) and again collagenase (60 min.). […] Cells were grown in Dulbecco's Minimal Essential Medium (DMEM) containing 10% fetal bovine serum (FBS) with antibiotics. […] Using a monoclonal antibody to alpha actin (Sigma Chemical Company, St. Louis, Mo.), about 60-80% (preparation dependent) of these confluent cells stained positive for this smooth muscle cell marker. After 10 days in culture, the cells were dissociated with trypsinethylene diamine tetraacetate (EDTA), split 1:10 and subcultured in the above medium. At confluence the cells were transferred to DMEM containing 0.1 % FBS for a 24 hour period before using them for assay. […]
(§1) The prepared rat smooth muscle cells were seeded in Falcon 24 multiwell plates (10^5 cells/well) and cultured at 37° C., in a 5% CO2 atmosphere in 1 ml DMEM containing 10% FBS. […] The cells were washed twice with cold phosphate buffered saline (PBS), treated twice with 5% trichloroacetic acid (TCA) for 5 min., dissolved with 0.25N NaOH (0.4 ml) incubated at 37° C. for 60 min., mixed with 5 ml Ecolume (ICN Biomedicals, Costa Mesa, Calif.), and their radioactivity determined in a scintillation counter. […] Smooth muscle cell mitogenic activity produced by exogenous agents is expressed as % relative mitogenic activity which is defined as: [formula] […]
The effects of antistasin and tick anticoagulant peptide on factor Xa induced mitogenesis of smooth muscle cells were tested using the method shown in Example 4. […] At the end of the 24 hour incubation, ^3 H-thymidine incorporation into DNA was monitored and smooth muscle cell mitogenic activity was assessed as described in Example 4.

[4] = system: smooth muscle cells; assay: Effect of factor Xa inhibitors on human protein S and bovine factor X induced smooth muscle cell mitogenesis; format: cell-based, rat; details: FIG. 3
Experimental: Primary smooth muscle cell cultures were prepared from the thoracic and abdominal aorta of 2-3 month old Wistar rats essentially using the procedure of Reilly, C. F. (1990) J. Cell Physiol. 142,342 (1990). After removing as much fat and adherent adventitia as possible with scissors and forceps, the tissue was finely minced, enzymatically dissociated with successive 37° C. incubations in HBSS containing collagenase (Sigma, 0.5 mg/ml for 15 min.), then elastase (Sigma, 0.125 mg/ml for 30 min.) and again collagenase (60 min.). […] Cells were grown in Dulbecco's Minimal Essential Medium (DMEM) containing 10% fetal bovine serum (FBS) with antibiotics. […]
as §1

[5] = system: 3T3 cells; assay: Direct antistasin treatment of 3T3 cells, proliferation; format: cell-based
[6] = system: human venous endothelial cells; assay: Release of mitogens from endothelial cells stimulated with factor Xa; conditioned media tested for mitogenic activity on 3T3 cells; format: cell-based; details: for Mitogenic units of EC conditioned media: 1 unit = activity induced by 2 ng/ml PDGF, FXa 1 nM, ATS 5 nM, PDGF 2 ng/ml, 16 h
Experimental: Confluent primary cultures or subcultures (passages 1 and 2) of human venous endothelial cells (EC) were cultured in serum-free Dulbecco's Minimal Essential Medium (DMEM)+0.1% bovine serum albumin (BSA) in the presence of human or bovine factor Xa(1 nM) (Sigma Chemical Co., St. Louis, Mo.), antistasin (ATS) (0.5-5.0 nM), or both. Control cultures were untreated or received 2 ng/ml platelet-derived growth factor (PDGF) (Sigma Chemical Co., St. Louis, Mo.). After 16 hours incubation at 37° C., the conditioned media (CM) from the test and control cell cultures were collected and tested for mitogenic activity (MIT) using confluent NIH 3T3 cells (CCL 163, American Type Culture Collection, Rockville, Md.).
Primary cultures of EC derived from umbilical cord veins were prepared and grown according to a protocol provided to by Dr. Gwendolyn Stewart (Temple University Thrombosis Center, Phila., Pa.). After washing the lumen of the vein twice with DMEM, EC were dissociated with a solution containing 0.05% trypsin and 0.1% collagenase. Thirty minutes later, the venous content and the perfused DMEM (35 ml) was collected into a fifty ml centrifuge tube containing 3.5 ml of bovine serum and the mixture spun at 900 rpm for 10 minutes. The supernate was discarded and the cell pellet resuspended in 3.0 ml DMEM containing 20% fetal bovine serum (FBS) (heat inactivated at 56° C. for 30 minutes), 90 μg heparin per ml, 5 μg fibronectin per ml, and 60 μg endothelial growth factor per ml (cDMEM), and seeded into 35 mm tissue culture dishes. After 24 hours of incubation at 37 °C, 5% CO2, the culture was washed 3-4 times with DMEM and incubated 2-4 days until the cells were confluent. The monolayers were washed with phosphate buffered saline (PBS) and cultured in DMEM with 0.1% BSA in the presence and absence of 1 nM factor Xa, 5 nM antistasin, or a mixture of both. As positive and negative controls, separated monolayers were incubated with the medium plus 2 ng/ml PDGF or with the medium alone. After 16 hours of incubation at 37° C., conditioned media (CM) were collected, centrifuged at 4000×g for 10 minutes, and the supernate was collected and stored at 4° C. until use. The mitogenic activity of the CM was tested by measuring the incorporation of [^3 H] thymidine into cultures of Balb 3T3 cells. For this purpose, wells were seeded with 2×10^4 3T3 cells suspended in 1 ml DMEM with 10% FBS. Once confluent (5-7 days of culture), CM were added and cells incubated for 18 hours at 37° C. after which cultures were washed with warm DMEM, tritiated thymidine added (1 μCi/ml) and cells incubated for 4 hours at 37° C. After removing the medium, the culture was washed twice with cold 5% trichloroacetic acid (TCA), and lysed with 0.8 ml 0.25M NaOH. The lysate was transferred to vials with scintillation fluid and radioactivity monitored in a beta radiation counter.
One unit of mitogenic activity is defined as the mitogenic activity induced by 2 ng/ml PDGF. Each assay was performed in triplicate and the standard deviation was less than 10%.

[7] = FIG. 1, 10 nM coagulation factor

B1: protein S: human protein S, coagulation cascade factor (Enzyme Res. Labs) (protein, UniProt P07225 42-676, looked up)
Vitamin K-dependent protein S: ANSLLEETKQGNLERECIEELCNKEEAREVFENDPETDYFYPKYLVCLRSFQTGLFTAARQSTNAYPDLRSCVNAIPDQCSPLPCNEDGYMSCKDGKASFTCTCKPGWQGEKCEFDINECKDPSNINGGCSQICDNTPGSYHCSCKNGFVMLSNKKDCKDVDECSLKPSICGTAVCKNIPGDFECECPEGYRYNLKSKSCEDIDECSENMCAQLCVNYPGGYTCYCDGKKGFKLAQDQKSCEVVSVCLPLNLDTKYELLYLAEQFAGVVLYLKFRLPEISRFSAEFDFRTYDSEGVILYAESIDHSAWLLIALRGGKIEVQLKNEHTSKITTGGDVINNGLWNMVSVEELEHSISIKIAKEAVMDINKPGPLFKPENGLLETKVYFAGFPRKVESELIKPINPRLDGCIRSWNLMKQGASGIKEIIQEKQNKHCLVTVEKGSYYPGSGIAQFHIDYNNVSSAEGWHVNVTLNIRPSTGTGVMLALVSGNNTVPFAVSLVDSTSEKSQDILLSVENTVIYRIQALSLCSDQQSHLEFRVNRNNLELSTPLKIETISHEDLQRQLAVLDKAMKAKVATYLGGLPDVPFSATPVNAFYNGCMEVNINGVQLDLDEAISKHNDIRAHSCPSVWKKTKNS
% relative mitogenic activity above control [1, 7]: about 122% | SMC Number [2]: 6.5 × 10^5 | CPM Incorporated (3H-thymidine) ([2]; 2 h pulse): 30,074 ± 2,837 CPM

B2: antistasin (protein, UniProt P15358 18-136, looked up)
Antistasin: QGPFGPGCEEAGCPEGSACNIITDRCTCSGVRCRMHCPHGFQRSRYGCEFCKCRLEPMKATCDISECPEGMMCSRLTNKCDCKIDINCRKTCPNGLKRDKLGCEYCECRPKRKLIPRLS
notes: 119-amino acid protein isolated from the salivary glands of the Mexican leech Haementeria officinalis
Relative mitogenic activity above control ([3]; 10 nM fXa and 5 nM antistasin): about 23% | Relative mitogenic activity above control ([3]; 10 nM fXa and 10-20 nM antistasin): about 2% | Relative mitogenic activity above control ([3]; 10 nM fXa with 40-50 nM antistasin): near zero | Inhibition of relative mitogenic activity of bovine factor X ([4]; 10 nM bovine factor X with 50 nM antistasin): not significantly inhibited | Inhibition of relative mitogenic activity of protein S ([4]; protein S with 50 nM antistasin): abolished | Effect on proliferation of 3T3 cells [5]: no significant effect | Mitogenic units of EC conditioned media ([6]; EXP 1): 0.74 mitogenic units | Mitogenic units of EC conditioned media ([6]; EXP 2): 0.42 mitogenic units | Mitogenic units of EC conditioned media ([6]; EXP 3): 0.70 mitogenic units | Mitogenic units of EC conditioned media ([6]; EXP 4): 0.36 mitogenic units | Release of mitogens from endothelial cells ([6]; antistasin 0.5-10 nM): blocks the release of mitogens

B3: platelet derived growth factor BB: recombinant platelet-derived growth factor-BB, a good mitogen for smooth muscle cells (protein, UniProt P01127 82-190, looked up)
Platelet-derived growth …: SLGSLTIAEPAMIAECKTRTEVFEISRRLIDRTNANFLVWPPCVEVQRCSGCCNNRNVQCRPTQVQLRPVQVRKIEIVRKKPIFKKATVTLEDHLACKCETVAAARPVT
modifications: homodimer
notes: recombinant platelet-derived growth factor-BB, a good mitogen for smooth muscle cells
% relative mitogenic activity above control ([1]; FIG. 1, 0.1 nM PDGF-BB): about 63%

B4: Factor IX: bovine coagulation factor IX (protein, UniProt P00741 26-462, looked up)
Coagulation factor IX: AECTVFLDRENATKILHRPKRYNSGKLEEFVRGNLERECKEEKCSFEEAREVFENTEKTTEFWKQYVDGDQCESNPCLNGGMCKDDINSYECWCQAGFEGTNCELDATCSIKNGRCKQFCKRDTDNKVVCSCTDGYRLAEDQKSCEPAVPFPCGRVSVSHISKKLTRAETIFSNTNYENSSEAEIIWDNVTQSNQSFDEFSRVVGGEDAERGQFPWQVLLHGEIAAFCGGSIVNEKWVVTAAHCIKPGVKITVVAGEHNTEKPEPTEQKRNVIRAIPYHSYNASINKYSHDIALLELDEPLELNSYVTPICIADRDYTNIFLKFGYGYVSGWGKVFNRGRSASILQYLKVPLVDRATCLRSTKFSIYSHMFCAGYHEGGKDSCQGDSGGPHVTEVEGTSFLTGIISWGEECAMKGKYGIYTKVSRYVNWIKEKTKLT
% relative mitogenic activity above control [1, 7]: only weakly mitogenic
